Measured values published in article PMC10083539, “Structural insights into plasmalemma vesicle-associated protein (PLVAP): Implications for vascular endothelial diaphragms and fenestrae” (Proceedings of the National Academy of Sciences of the …, 2023).

Tests used:
[1] = target: the molecule itself; test: SDS-PAGE, reducing vs nonreducing; purified fragments from E. coli SHuffle after 3C cleavage; electrophoretic mobilities in reducing and nonreducing gels; shows disulfide-linked dimers
[2] = target: T1, hGH fusion with PLVAP ECD from amino acid 143, C-terminal deletion G (fusion protein G of Fig. 9) (Mus musculus, UniProt Q91VC4); test: far-Western, overlay or dot blot; immunoblot: hGH-PLVAP deletion fusions in conditioned medium resolved by SDS-PAGE, blots probed with mAb MECA-32 and rabbit anti-hGH, fluorescent secondary antibodies; conditions: one partner purified
T1 construct: PLVAP, mouse; N terminus at amino acid 143 (QEQLKE...); Limit may be off by one residue; source: HEK/293T, transiently transfected, secreted, in serum-free conditioned medium; not shown: hGH (human growth hormone), N-terminal, kept

[3] = target: T2, hGH fusion with PLVAP ECD, N-terminal deletion C (fusion protein C of Fig. 9) (Mus musculus, UniProt Q91VC4); test: as above; conditions: one partner purified
T2 construct: PLVAP, mouse; extends to the C terminus of PLVAP; Limit may be off by one residue; source: HEK/293T, transiently transfected, secreted, in serum-free conditioned medium; not shown: hGH (human growth hormone), N-terminal, kept

[4] = target: T3, hGH fusion with PLVAP ECD from amino acid 104 to the C terminus (fusion protein A of Fig. 9) (Mus musculus, UniProt Q91VC4); test: as above; conditions: one partner purified
T3 construct: PLVAP, mouse; N terminus at amino acid 104 (TRREME...), extends to the C terminus of PLVAP; source: HEK/293T, transiently transfected, secreted, in serum-free conditioned medium; not shown: hGH (human growth hormone), N-terminal, kept

[5] = target: T4, AP–PLVAP CC2, alkaline phosphatase fused to PLVAP CC2 (Mus musculus, UniProt Q91VC4); test: ELISA; MECA-32/hIgG immobilised on protein A-coated 96-well plates (4 °C overnight); conditioned media with AP-PLVAP CC2, 25 °C, 1 h; 10 mM HEPES pH 7.5, 0.15 M NaCl, 0.05% Tween-20 washes; colorimetric AP reaction (BluePhos); conditions: one partner purified
T4 construct: PLVAP, mouse, CC2; The plasmid codes for AP followed by a Myc tag and an 8xHis tag; source: HEK/293T, in conditioned media

[6] = target: the molecule itself; test: crystal structure; PLVAP CC1; crystal form I (P212121, 0.2 M sodium malonate pH 5.0, 20% PEG3350, sulfur SAD) and crystal form II (I212121, 0.1 M sodium acetate pH 5.0, 15% PEG 4000), 21 °C

B1: PLVAP CC2, residues 270 to 395 (domain or fragment, mouse, UniProt Q91VC4 270-395, looked up)
chain: ESLPGIMTTKIEELARGLRAGIERVTRENAELRRQKLELERAAQAAQEARARAGTEAQARETQLRAECARQTQLALEEKAALRAQRDNLERELEARKRELEQLRTEVDVRISALDTCVKAKSLPAV
notes: PLVAP, mouse, coiled-coil segment CC2, residues 270 to 395; also called pXG52; source: E. coli SHuffle T7, purified (IMAC, 3C protease cleavage, IMAC, SEC); not shown: thioredoxin (E. coli TrxA), N-terminal, cleaved; 8xHis, N-terminal, cleaved
binding result [1]: binds

B2: MECA-32, anti-PLVAP monoclonal antibody (antibody, V domains shown)
VH: EVQLVESGGGLVQPGRSMKLSCAASGFTFSDYYMAWVRQAPMKGLKWVASISYEGNKTYYGDSVKGRFTISRDNAKSILYLQMNSLKSEDTATYYCARQSYSSYIFDYWGQGVMVTVSS
VL: DIQMTQTPSSMSASLGERVTISCGTSQGVNIFLNWYQQKPDGTIKPLIFFTSHLQSGVPSRFSGSGSGTAYSLTISSLEPEDFAVYYCQQYDSSPPTFGGGTKLYLK
notes: heavy-chain constant region of the hybridoma antibody; light-chain constant region of the hybridoma antibody; the blots used the bought antibody of the same clone name; also called rat mAb MECA-32 (553849; BD Biosciences); source: bought: BD Biosciences (553849)
binding result [2]: binds | binding result [3]: binds | binding result [4]: binds

B3: MECA-32/hIgG, engineered MECA-32 antibody with human constant regions (antibody, V domains shown)
VH: B2 VH
VL: B2 VL
notes: mature VH of MECA-32; human heavy-chain IgG constant region (CH1, CH2 and CH3) with an HRV 3C protease cleavage site between CH1 and CH2; mature VL of MECA-32; human light-chain constant region (CL); Chimeric IgG; held on protein A-coated wells in the assay; also called MECA-32/IgG; engineered MECA-32 Ab; source: HEK/293T, cotransfected heavy- and light-chain plasmids, purified from conditioned …
binding result [5]: binds

B4: PLVAP extracellular domain (full-length ECD), residues 52 to 438 (domain or fragment, mouse, UniProt Q91VC4 52-438, looked up)
chain: HATTESSLRATEIRADSLYSQVVGLSASQANLSKQLNISLLVKETVMQQLLTTRREMERINASFRQCQGDLITYINYNRFIAAIILSEKQCQEQLKEVNKTCEALLFKLGEKVKTLEMEVAKEKAVCSKDKESLLAGKRQTEEQLEACGKARERQQQEQQVTEENLRKVQSLCIPLDQEKFQADVLSAWRDSLIYRTLETLPYHYQLMPEYASLRRTCESLPGIMTTKIEELARGLRAGIERVTRENAELRRQKLELERAAQAAQEARARAGTEAQARETQLRAECARQTQLALEEKAALRAQRDNLERELEARKRELEQLRTEVDVRISALDTCVKAKSLPAVPPRVSGPPPNPPPIDPASLEEFKKRILESQRLPVVNPAAQPSG
notes: plasmalemma vesicle-associated protein (PLVAP), mouse, extracellular domain, residues 52 to 438; also called PLVAP ECD; pXG61; source: E. coli SHuffle T7, purified (IMAC, 3C protease cleavage, IMAC, SEC); not shown: thioredoxin (E. coli TrxA), N-terminal, cleaved; 8xHis, N-terminal, cleaved
binding result [1]: binds

B5: PLVAP CC1, residues 141 to 229 (domain or fragment, mouse, UniProt Q91VC4 141-229, looked up)
chain: QCQEQLKEVNKTCEALLFKLGEKVKTLEMEVAKEKAVCSKDKESLLAGKRQTEEQLEACGKARERQQQEQQVTEENLRKVQSLCIPLDQ
notes: PLVAP, mouse, coiled-coil segment CC1, residues 141 to 229 (89 amino acids); Parallel dimer with five interchain disulfide bonds; also called pPMS1170; source: E. coli SHuffle T7, purified (IMAC, 3C protease cleavage, IMAC, SEC); not shown: thioredoxin (E. coli TrxA), N-terminal, cleaved; 8xHis, N-terminal, cleaved
stoichiometry N [6]: 2
